In patent US10058586B2, “Use of human small leucine zipper protein in adipocyte differentiation procedure” (Korea University Research and Business Foundation, priority 2013, dated 2018):

What was measured:
PPARγ2 [1] = target: T1, PPARγ2 (Mus musculus, UniProt P37238); experiment: FABP4-Luc stable C3H10T1/2 cells infected with sLZIP-expressing adenovirus and differentiated into adipocytes; type: cell-based; details: sLZIP adenovirus, differentiated into adipocytes for 4 days
T1 construct: endogenous in cells
T1 sequence (P37238 1-505): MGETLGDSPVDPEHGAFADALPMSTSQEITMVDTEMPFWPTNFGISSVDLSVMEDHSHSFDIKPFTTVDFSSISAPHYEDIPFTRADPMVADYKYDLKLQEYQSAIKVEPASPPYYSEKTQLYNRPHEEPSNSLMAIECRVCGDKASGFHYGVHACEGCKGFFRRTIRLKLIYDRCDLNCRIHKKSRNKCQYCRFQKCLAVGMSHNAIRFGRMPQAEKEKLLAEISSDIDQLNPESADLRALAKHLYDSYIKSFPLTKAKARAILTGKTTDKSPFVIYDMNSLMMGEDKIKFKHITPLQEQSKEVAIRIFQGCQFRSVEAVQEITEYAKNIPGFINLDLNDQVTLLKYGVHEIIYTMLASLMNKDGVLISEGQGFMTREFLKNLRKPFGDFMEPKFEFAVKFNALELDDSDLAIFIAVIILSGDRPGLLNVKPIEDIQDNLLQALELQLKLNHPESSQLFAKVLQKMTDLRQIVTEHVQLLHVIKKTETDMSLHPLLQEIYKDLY

PPARγ2 [2] = target: T2, PPARγ2 (Homo sapiens, UniProt P37231); experiment: Fluorescence microscopy, subcellular localization of sLZIP and PPARγ2 in C3H10T1/2 cells; type: cell-based; details: GFP-PPARγ2 and Flag-sLZIP
T2 sequence (P37231 1-505): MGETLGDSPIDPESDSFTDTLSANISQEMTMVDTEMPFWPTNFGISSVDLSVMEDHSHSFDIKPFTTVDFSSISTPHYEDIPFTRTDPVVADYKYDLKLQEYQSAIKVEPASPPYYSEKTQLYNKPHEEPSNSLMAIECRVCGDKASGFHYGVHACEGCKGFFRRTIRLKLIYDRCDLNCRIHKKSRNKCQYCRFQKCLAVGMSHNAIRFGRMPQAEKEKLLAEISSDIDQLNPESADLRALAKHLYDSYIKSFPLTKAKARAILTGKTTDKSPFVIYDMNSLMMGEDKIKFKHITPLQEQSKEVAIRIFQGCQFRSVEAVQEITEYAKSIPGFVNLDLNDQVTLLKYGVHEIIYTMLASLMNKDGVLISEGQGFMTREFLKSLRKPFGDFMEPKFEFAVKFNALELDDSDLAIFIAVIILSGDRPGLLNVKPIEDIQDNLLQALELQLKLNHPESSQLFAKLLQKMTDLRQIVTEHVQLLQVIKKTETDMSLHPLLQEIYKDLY
Procedure: C3H10T1/2 cells were transiently ci-transfected with Flag-sLZIP, GFP-PPARγ2 or GFP-sLZIP, and HDAC3 was grown on cover slip. After 24 hours, the cells were fixed with 4% paraformaldehyde for 10 minutes and permeabilized 0.2% Triton-X 100 for 5 minutes. The cells were incubated with 1% BSA for one hour, and then incubated with anti-Flag and anti-HDAC3 antibodies overnight at 4° C. The cells were washed with PBS, and then were incubated with Texas Red-labeled antibodies for 2 hours. A cover slide was washed with PBS, and mounted on and examined using a LSM 510 META confocal microscopy (Carl Zeiss, Jena, Germany).
In order to examine whether the transcriptional activity of PPARγ2 is regulated by interaction with sLZIP, interaction between sLZIP and PPARγ2 was examined. For this purpose, 293T cells were transfected with GST-sLZIP and Myc-PPARγ2. Cell lysates were obtained and GST pull-down analysis was performed using a glutathione 4B bead. A protein complex was analyzed in SDS-PAGE and then immunoblotted with specific antibodies (FIG. 2A). […] Proteins bound to the bead were analyzed in SDS-PAGE, and then immunoblotted with anti-PPARγ2 and anti-His antibodies (FIG. 2C). GFP-PPARγ2 and Flag-sLZIP constructs were expressed in C3H10T1/2 cells, and analyzed using mouse anti-Flag and Texas Red-labeled anti-mouse antibodies under a fluorescence microscope. […]

PPARγ2 and HDAC3 = target: T3, PPARγ2 and HDAC3 (Homo sapiens, UniProt P37231); experiment: GST pull-down of GST-HDAC3, Myc-PPARγ2 and Flag-sLZIP in 293T cells; type: binding; details: in the presence of ligand (10 nM RZD)
T3 construct: expressed in transfected cells; host or cells: 293T cells
T3 sequence (P37231 1-505): T2 sequence (P37231 1-505)
Procedure: Therefore, in order to understand a regulation mechanism of sLZIP in the PPARγ2 transcriptional activity by binding to the FABP4 promoter region, an effect of sLZIP on the interaction between PPARγ2 and HDAC3 was examined. For this purpose, 293T cells were transfected with GST-HDAC3, Myc-PPARγ2 and Flag-sLZIP, and were treated or not treated with 10 nM of RZD for 24 hours. Cell lysates were subjected to GST pull-down analysis using a glutathione 4B bead, and a protein complex was analyzed in SDS-PAGE, and then immunoblotted with anti-GST, anti-Myc and anti-Flag antibodies (FIG. 6A). GST-HDAC3, GST-PPARγ2, Myc-PPARγ2, Flag-sLZIP and Ha-UB were expressed in the 293T cells, and the cells were treated with 10 nM of RZD for 24 hours. Cell lysates were subjected to GST pull-down analysis (FIG. 6B). GST-PPARγ2 and Flag-sLZIP were expressed in the 293T cells and treated with 10 nM of RZD for 24 hours. Cell lysates were subjected to GST pull-down analysis, and a protein complex was analyzed in SDS-PAGE, and then immunoblotted with anti-PGC1α, anti-GST and anti-Flag antibodies (FIG. 6C).

B1: sLZIP: human small leucine-zipper protein, isoform of LZIP, 354 amino acids, no transmembrane domain; GenBank FJ263669, SEQ ID NO: 1 (protein, listed as Homo sapiens)
chain: MELELDAGDQDLLAFLLEESGDLGTAPDEAVRAPLDWALPLSEVPSDWEVDDLLCSLLSPPASLNILSSSNPCLVHHDHTYSLPRETVSMDLESESCRKEGTQMTPQHMEELAEQEIARLVLTDEEKSLLEKEGLILPETLPLTKTEEQILKRVRRKIRNKRSAQESRRKKKVYVGGLESRVLKYTAQNMELQNKVQLLEEQNLSLLDQLRKLQAMVIEISNKTSSSSMYSSDTRGSLPAEHGVLSRQLRALPSEDPYQLELPALQSEVPKDSTHQWLDGSDCVLQAPGNTSCLLHYMPQAPSAEPPLEWPFPDLFSEPLCRGPILPLQANLTRKGGWLPTGSPSVILQDRYSG
transcriptional activity of PPARγ2 (relative luciferase activity) (PPARγ2 [1]): the transcriptional activity of PPARγ2 decreased in adipocytes | subcellular localization of sLZIP and PPARγ2 (PPARγ2 [2]): localized in the nucleus together with PPARγ2 | effect on interaction between PPARγ2 and HDAC3 (GST pull-down) (PPARγ2 and HDAC3): enhanced interaction between PPARγ2 and HDAC3
